Experimental data as given in PMC2583361.

Target: SSB C-terminal peptide (SSB-Ct peptide) (E. coli)
Assay: ITC

Sequence of PriA DNA helicase (P17888 whole entry): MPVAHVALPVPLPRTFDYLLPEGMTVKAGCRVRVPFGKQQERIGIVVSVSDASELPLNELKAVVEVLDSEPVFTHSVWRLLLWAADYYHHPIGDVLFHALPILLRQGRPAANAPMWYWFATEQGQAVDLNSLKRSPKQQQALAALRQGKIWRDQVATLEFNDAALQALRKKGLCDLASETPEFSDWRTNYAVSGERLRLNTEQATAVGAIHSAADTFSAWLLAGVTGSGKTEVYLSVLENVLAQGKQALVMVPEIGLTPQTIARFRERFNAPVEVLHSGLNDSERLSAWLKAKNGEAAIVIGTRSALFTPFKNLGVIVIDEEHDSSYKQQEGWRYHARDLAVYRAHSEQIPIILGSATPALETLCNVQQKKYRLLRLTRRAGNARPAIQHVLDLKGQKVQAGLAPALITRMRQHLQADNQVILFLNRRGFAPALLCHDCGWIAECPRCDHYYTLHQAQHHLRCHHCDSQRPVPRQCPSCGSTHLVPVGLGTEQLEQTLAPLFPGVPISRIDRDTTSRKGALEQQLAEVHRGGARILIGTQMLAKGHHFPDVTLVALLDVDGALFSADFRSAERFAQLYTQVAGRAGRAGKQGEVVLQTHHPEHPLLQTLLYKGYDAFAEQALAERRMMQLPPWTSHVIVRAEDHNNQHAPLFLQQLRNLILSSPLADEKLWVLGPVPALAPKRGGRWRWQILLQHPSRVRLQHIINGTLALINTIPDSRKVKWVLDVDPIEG
Sequence of χ subunit of the DNA polymerase III holoenzyme (P28905 whole entry): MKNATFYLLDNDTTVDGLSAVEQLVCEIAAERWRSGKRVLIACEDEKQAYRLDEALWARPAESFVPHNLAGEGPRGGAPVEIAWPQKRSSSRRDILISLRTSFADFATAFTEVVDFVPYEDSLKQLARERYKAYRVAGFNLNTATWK

Row | Ka [M⁻¹] | dH [kcal/mol] | Substance
1 | 1.8e+06 | -6.9 | PriA DNA helicase (from UniProt P17888 1-732) (enzyme)
2 |  | -8.6 | χ subunit of the DNA polymerase III holoenzyme (from UniProt P28905 1-147) (natural protein)
